In patent publication US20160319033A1 (INSERM INSTITUT NATIONAL DE LA SANTE ET DE LA RECHERCHE …, published 2016):
Each block holds one binder with its values, some of them ahead of it.

Key:
[1] = biological target: T1, human HER3 receptor on cells (human, UniProt P21860 20-1342); test: flow cytometry competition on SKBR3 cells; NRG varied, displaced molecule: antibody B at a fixed concentration
T1 construct: whole, on cells; also called ErbB3
Method: Cells were then washed and further incubated with a 1:60 dilution of appropriate FITC-conjugated secondary antibody (Sigma) for 45 min on ice, before cytometry analysis on a Quanta apparatus (Beckman-Coulter).

[2] = biological target: T1, human HER3 receptor on cells; test: fluorescence of d2-labelled NRG on HER2/HER3-transfected 3T3 fibroblasts; unlabelled NRG varied, displaced molecule: d2-labelled NRG
Method: (§1) After KREBS washing, fluorescence at 620/670 nm was measured using a Pherastar microplate reader.

[3] = biological target: T2, HER3 Snap-tagged, on HEK cells (human, UniProt P21860 20-1342, Snap-tag labelled with Lumi4-terbium cryptate donor); test: Tag-Lite HTRF on HER3 Snap-tagged HEK cells, d2-labelled mAb, without NRG
T2 construct: whole, on cells; also called HER3 Snap-tagged HEK cells; not shown: Snap-tag (CisBio Tag-Lite)
Method: (§2) After 16 h of incubation, the fluorescence of Lumi4-terbium and d2 was measured respectively at 620 and 665 nm (60 μs delay, 400 μs integration) upon 337 nm excitation on a Pherastar FS instrument.

[4] = biological target: T2, HER3 Snap-tagged, on HEK cells; test: Tag-Lite HTRF on HER3 Snap-tagged HEK cells, with NRG against without NRG
Method: as §2

[5] = biological target: T2, HER3 Snap-tagged, on HEK cells; test: Tag-Lite HTRF on HER3 Snap-tagged HEK cells, d2-labelled mAb, co-incubated with NRG
Method: as §2

[6] = biological target: T2, HER3 Snap-tagged, on HEK cells; test: Tag-Lite HTRF on HER3 Snap-tagged HEK cells; d2-labelled 9F7-F11 varied; without NRG
Method: as §2

[7] = biological target: T2, HER3 Snap-tagged, on HEK cells; test: Tag-Lite HTRF on HER3 Snap-tagged HEK cells; d2-labelled 9F7-F11 varied; co-incubated with NRG (legend printed 'NRG 100 mM')
Method: as §2

[8] = biological target: T1, human HER3 receptor on cells; test: fluorescence of d2-labelled NRG on HER2/HER3-transfected 3T3 fibroblasts; 9F7-F11 varied; half-maximal enhancement of the binding of labelled NRG to HER3
Method: as §1

IC50 (read off the curve) [1]: ~2 nM
IC50 (read off the curve) [2]: ~5 nM
B1: neuregulin (NRG) (ligand, UniProt Q02297-6 177-241, looked up)
chain: SHLVKCAEKEKTFCVNGGECFMVKDLSNPSRYLCKCPNEFTGDRCQNYVMASFYKHLGIEFMEAE
modifications: also: d2 dye label as tracer, site not given here
notes: also called neuregulin 131 (as printed, probably neuregulin beta1); heregulin

Kd [3]: 2.33 nM
fold increase of affinity with NRG against without NRG [4]: 6 fold
Kd [5]: 0.47 nM
EC50 (read off the curve) [6]: ~2 nM
EC50 (read off the curve) [7]: ~0.5 nM
EC50 (read off the curve) [8]: ~10 nM
B2: murine anti-human-HER3 monoclonal antibody 9F7-F11 (antibody, V domains shown)
VH: EVKLVESGGGLVQPGGSLKLSCAASGFTFSSYTMSWVRQTPEKRLEWVAYISDGGGVTYYPDTIKGRFTISRDNAKNTLYLQMSSLKSEDTAMYYCARDRYGLFAYWGQGTLVTVSA
VL: DIVMTQSQKFMSTSVGDRVSITCKASQNVGIAVAWYQQKPGQSPKLLIYSASNRYTGVPDRFTGSGSGTDFTLTISNMQSEDLADYFCQQYSNYPYTFGGGTKLEIK
notes: Murine hybridoma antibody; also called mAb 9F7-F11; anti-HER3 Ab 9F7-F11
